Consider one molecule from paper PMC11904002.

The target of this experiment is T1, Signal peptide peptidase (SPP), human, with a C-terminal myc-tag (human), Q8TCT9.
T1 chain: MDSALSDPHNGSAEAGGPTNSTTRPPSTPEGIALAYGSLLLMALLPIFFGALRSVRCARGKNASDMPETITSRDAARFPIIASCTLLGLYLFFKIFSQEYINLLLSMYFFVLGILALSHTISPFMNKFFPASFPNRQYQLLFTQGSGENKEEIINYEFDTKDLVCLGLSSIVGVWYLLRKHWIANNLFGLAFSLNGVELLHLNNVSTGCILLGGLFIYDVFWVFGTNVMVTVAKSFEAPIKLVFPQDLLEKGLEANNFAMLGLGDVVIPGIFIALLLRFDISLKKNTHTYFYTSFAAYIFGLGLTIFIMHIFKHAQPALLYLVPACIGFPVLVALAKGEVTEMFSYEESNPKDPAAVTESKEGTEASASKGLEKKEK
Description: SDS-PAGE and Western blot of cell lysate; lysate of transfected HEK cells (50 mM Tris/HCl pH 7.4, 150 mM NaCl, 1% Triton X-100, 0.1% SDS); SDS-PAGE with tris-glycine buffer; SPP band at the size of a dimer. The following applies: remark: other sources report otherwise. On the technique in general: In western blotting, separated proteins are transferred to a membrane and probed.

By stoichiometry N is commonly meant a count of units in the complex or per binding partner.

B1: Signal peptide peptidase (SPP), human, with a C-terminal myc-tag, Q8TCT9-1 1-377 (enzyme)
chain: T1 chain
Take B1: the stoichiometry N was 2.
